Reference: US6541220 (GENERAL HOSPITAL, dated 2003)
No end group written: not given here.

T1: zebrafish PTH1R receptor, clone zPTH1R#25 (longer 5' UT, 391 bp), transiently expressed in COS-7 cells (zebrafish (Danio rerio))
T1 construct: only the 5' UT differs; also called zPPR1#25
T1 chain: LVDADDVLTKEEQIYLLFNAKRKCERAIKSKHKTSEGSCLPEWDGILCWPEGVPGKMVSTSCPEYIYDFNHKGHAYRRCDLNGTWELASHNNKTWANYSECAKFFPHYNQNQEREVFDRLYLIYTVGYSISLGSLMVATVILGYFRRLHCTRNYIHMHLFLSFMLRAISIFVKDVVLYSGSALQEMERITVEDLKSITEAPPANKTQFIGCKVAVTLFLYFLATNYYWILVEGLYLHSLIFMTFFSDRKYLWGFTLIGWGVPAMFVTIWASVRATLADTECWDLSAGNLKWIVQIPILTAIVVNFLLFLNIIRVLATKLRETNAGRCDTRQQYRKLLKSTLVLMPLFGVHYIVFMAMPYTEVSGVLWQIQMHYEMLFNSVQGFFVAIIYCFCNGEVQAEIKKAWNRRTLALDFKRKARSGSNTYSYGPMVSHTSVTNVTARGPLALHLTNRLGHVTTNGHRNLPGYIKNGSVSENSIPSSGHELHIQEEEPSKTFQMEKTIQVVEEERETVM

T2: zebrafish PTH1R receptor, clone zPTH1R#29 (shorter 5' UT, 149 bp), transiently expressed in COS-7 cells (zebrafish (Danio rerio))
T2 construct: Full-length cDNA expressed on intact COS-7 cells; also called zPPR1#29; zPTH1R(FL)/pcDNAI/Amp
T2 chain: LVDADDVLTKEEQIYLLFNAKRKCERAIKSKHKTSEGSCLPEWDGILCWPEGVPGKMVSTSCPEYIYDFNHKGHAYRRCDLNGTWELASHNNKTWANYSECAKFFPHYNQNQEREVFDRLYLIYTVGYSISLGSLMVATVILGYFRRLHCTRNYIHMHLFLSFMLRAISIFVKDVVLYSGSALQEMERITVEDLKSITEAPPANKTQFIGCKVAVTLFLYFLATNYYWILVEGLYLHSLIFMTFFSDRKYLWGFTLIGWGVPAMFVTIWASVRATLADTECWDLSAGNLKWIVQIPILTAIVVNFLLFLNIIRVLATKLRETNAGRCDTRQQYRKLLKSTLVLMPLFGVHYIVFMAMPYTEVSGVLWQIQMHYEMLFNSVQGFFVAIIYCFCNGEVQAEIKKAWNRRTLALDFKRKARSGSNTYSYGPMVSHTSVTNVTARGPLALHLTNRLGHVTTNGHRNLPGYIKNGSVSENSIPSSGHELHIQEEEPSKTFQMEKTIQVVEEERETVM

T3: zebrafish PTH3R receptor, transiently expressed in COS-7 cells (zebrafish (Danio rerio))
T3 construct: Full-length cDNA expressed on intact COS-7 cells; also called zPTH3R; zPPR3
T3 chain: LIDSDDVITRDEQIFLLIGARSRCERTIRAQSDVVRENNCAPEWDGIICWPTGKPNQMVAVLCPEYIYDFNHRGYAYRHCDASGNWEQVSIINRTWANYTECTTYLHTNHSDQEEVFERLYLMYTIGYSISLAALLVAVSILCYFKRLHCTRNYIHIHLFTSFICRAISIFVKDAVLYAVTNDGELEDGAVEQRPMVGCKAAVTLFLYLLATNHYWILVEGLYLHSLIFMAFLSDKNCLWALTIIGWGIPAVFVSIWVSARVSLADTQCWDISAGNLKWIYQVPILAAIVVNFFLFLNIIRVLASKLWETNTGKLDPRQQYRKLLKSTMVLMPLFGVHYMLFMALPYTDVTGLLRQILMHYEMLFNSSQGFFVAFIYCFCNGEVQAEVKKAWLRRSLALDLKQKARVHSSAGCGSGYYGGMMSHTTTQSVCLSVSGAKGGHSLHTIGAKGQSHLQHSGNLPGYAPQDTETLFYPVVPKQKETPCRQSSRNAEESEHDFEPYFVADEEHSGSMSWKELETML


What was measured:
[1] = molecular target: T1, zebrafish PTH1R receptor, clone …; experiment: competitive radioligand binding on intact COS-7 cells expressing the receptor, room temperature; unlabeled hPTH, radioligand not clearly stated (125I-rPTH or 125I-PTHrP)
Experimental: (§1) Peptides were synthesized by the MGH polymer core facility as described (Gardella et al., (1996)). Specific binding was calculated by subtracting radioligand binding in the presence of excess unlabeled peptide from the total binding. All points represent mean±S.E.M. of two to three replicates from two or more independent experiments.
(§2) Table 3. Binding and cAMP Signaling Properties of PTH and PTHrP Analogs on the zPTH1R and the zPTH3R Competitive binding and cAMP stimulation assays were performed at room temperature with intact COS-7 cells that expressed either the zPTH1R or the zPTH3R, as described in Materials and Methods. […] Values are the mean±SEM of at least three independent transfections. ND, not determined.

[2] = molecular target: T2, zebrafish PTH1R receptor, clone …; experiment: as above
Experimental: as §1, §2

[3] = molecular target: T3, zebrafish PTH3R receptor, transiently …; experiment: as above
Experimental: as §1, §2

[4] = molecular target: T2, zebrafish PTH1R receptor, clone …; experiment: cell-based or functional assay
[5] = molecular target: T1, zebrafish PTH1R receptor, clone …; experiment: cell-based or functional assay
[6] = molecular target: T2, zebrafish PTH1R receptor, clone …; experiment: cell-based or functional assay
[7] = molecular target: T3, zebrafish PTH3R receptor, transiently …; experiment: cell-based or functional assay
[8] = molecular target: T1, zebrafish PTH1R receptor, clone …; experiment: radioligand binding on COS-7 cells expressing the receptor
Experimental: (§3) Plasmid DNAs encoding the two full length zPTH1Rs (#25 and #29) and the zPTH3R were transiently expressed in COS-7 cells. COS-7 African green monkey kidney cells (approximately 200,000 cells/well in a 24-well plate) were cultured and transfected with plasmid DNA (200 ng/well) as described (Rubin et al., (1998)). After transfection, cells were cultured for 72 hrs at 37° with daily exchanges of medium, followed by an additional 24 hrs at 33° (Gardella et al., (1997)) until they were functionally evaluated after 96 hrs.
as §1

[9] = molecular target: T2, zebrafish PTH1R receptor, clone …; experiment: as above
Experimental: as §3, §1

[10] = molecular target: T3, zebrafish PTH3R receptor, transiently …; experiment: as above
Experimental: as §3, §1

IC50 [1] | IC50 [2] | IC50 [3] | IP accumulation (total inositol phosphates, 10^-6 M ligand) [4] | cAMP EC50 [5] | cAMP Maximum [5] | cAMP EC50 [6] | cAMP Maximum [6] | cAMP EC50 [7] | cAMP Maximum [7] | binding result [8] | binding result [9] | binding result [10] | Binder
~3 nM | ~3 nM | ~100 nM | 2 fold | ~3 nM | 90.4 pmol/well | 0.8 nM | 106 pmol/well | 5.98 nM | 227 pmol/well |  |  |  | SVSEIQLMHNLGKHLNSMERVEWLRKKLQDVHNY-NH2 (Synthetic analog of human PTH(1-34) with Tyr at 34) [[Tyr34]hPTH(1-34)amide]
 |  |  |  |  |  |  |  |  |  | binds | binds | binds | AVSEIQLXHNLGKHLASVERXQWLRKKLQDVHNY (Nle at 8 and 21; C-terminal amide; 125I-labeled, Synthetic analog of rat PTH(1-34), used as radioligand) [125I-labeled [Nle8,21,Tyr34]rPTH-(1-34)amide]
